# According to patent US11707527B2, “Nanoscale drug carrier capable of passing through blood-brain barrier” (KUNSHAN XINYUNDA BIOTECH CO., LTD., priority 2017, dated 2023):
# Tests used:
# [1] = tested on: human BBB brain endothelial hCMEC/D3 cells; assay: Specific binding of FITC-labeled ferritin to human brain endothelial cells (flow cytometry); format: cell-based; conditions: 50 μg/ml FITC-labeled protein, 45 min, 4° C., hCMEC/D3, vs FITC-BSA
# Procedure: Human BBB brain endothelial hCMEC/D3 cells were cultured to about 1×10^5 (100×20 mm, dish Corning, USA) and digested with trypsin, then the cells were washed with 0.3% (w/v) BSA/PBS (pH7.4) for three times. […] The cells were washed with 0.3% BSA/PBS for three times, finally resuspended in PBS (pH7.4). And fluorescence of the samples was tested by flow cytometry (at a wavelength of 488 nm).
# hCMEC/D3 BBB model = assay: In vitro BBB model (Transwell) transcytosis; format: in vitro ADME, human; conditions: 50 μg/mL FITC-labeled, 6 h, upper to lower chamber
# Procedure: The cells were cultured at 37° C. under CO2 in an incubator to confluence (2-3d). After the confluence state of hCMEC/D3 was observed by a microscope, medium (EBM-2 medium) was added to an upper chamber of the Transwell plate, resulting a more than 0.5 cm difference of liquid level between the upper and lower chamberst. If an obvious difference between the two chambers can be still observed after 4 h, it was regarded as completely confluent. The wells of Transwell without inoculated cells were used as a blank control.
# Equal amount (50 μg/mL) of FITC-labeled H-ferritins and the control FITC-labeled BSA were dissolved in EBM-2 medium (Gibco Life Technologies Inc., UK). […] The total volume (V) of the lower chamber was measured after being cultured for 6 h in a cell incubator. And then, 50 μL samples were respectively taken out of the lower chamber, and H-ferritin or BSA concentration (C) was measured by measuring fluorescence intensity (wavelength 488 nm). Afterwards, transcytosis efficiency was calculated according to the following formula: transcytosis efficiency %=(Clower chamber×Vlower chamber)/(Cinitial×Vinitial)×100%.
# [2] = tested on: human BBB brain endothelial cells hCMEC/D3; assay: Endocytosis and lysosome co-localization in human brain endothelial cells (confocal microscopy); format: cell-based; conditions: hCMEC/D3, 4 h incubation
# Procedure: Human BBB brain endothelial cells hCMEC/D3 slides (BD Biosciences) were placed in a 6-well plate (with well diameter of 34.8 mm, Corning, USA) for culturing above to a density of about 60%, then the experiment was conducted. 1 μM FITC-labeled H-ferritin above was added, and incubated respectively for 5 min and 6 min at 37° C. Then the cells were washed with 0.3% BSA/PBS for three times, and finally fixed with 4% paraformaldehyde. After being washed with PBS (pH7.4) for three times, cell nuclei were stained with DAPI (Roche Applied Science) 10 min at room temperature. After being washed by PBS for three times again, the slides were mounted with a mounting medium, and observed by laser confocal microscopy (Olympus FluoView FV-1000, Tokyo, Japan).
# Human BBB brain endothelial cells hCMEC/D3 slides (BD Biosciences) were placed in a 6-well plate for culturing to a density of about 60%, and then the experiment was conducted. […] The cells were fixed with 4% paraformaldehyde after being washed with PBS for three times. Then 0.1% Triton X-100 was used for cell permeabilization After being washed with PBS again, the cells were blocked in 5% goat serum (ZSGB-BIO) 30 min at room temperature, and then incubated in Alexa Fluor®555-labeled antibodies and lysosome marker molecules LAMP1 (1:200, clone H4A3; Invitrogen) for 1 h at 37° C. […]
molecule,measurement,setting,value
"chimeric human H-ferritin: human L-ferritin with outer surface sequences replaced with SEQ ID NO: 1-3 of H-ferritin; SEQ ID NO: 7 (protein, chimeric human H ferritin) MTSQVRQNYHQDSEAAINRQINLELYASYVYLSMSYYFDRDDVALEGVSHFFRELAEEKREGYERLLKMQNQRGGRIFLQDIKKPDCDDWESGLNAMECALHLEKNVNQSLLELHKLATDKNDPHLCDFLETHFLDEEVKLIKKMGDHVTNLRKMGAPESGLAEYLFERLTLKHD",specific binding with human brain endothelial cells,[1],can still achieve specific binding
same,crossing the in vitro BBB model (transcytosis efficiency),hCMEC/D3 BBB model,can significantly cross the blood brain barrier
same,entering / co-localization with lysosome (LAMP1) in brain endothelial cells,[2],did not co-localize with the lysosome
